This note sets out measurements from publication PMC10715038 (2023).

The target in this assay is SARS-CoV-2 WHU01 RBD, monomeric (SARS-CoV-2 (WHU01), UniProt P0DTC2). Put plainly: SPR. Background: In SPR one partner is held on a chip, and binding of the other changes the refractive index at the surface.

B1: cat ACE2 extracellular domain, human IgG1 Fc fusion protein (Fc fusion)
chain: QSTTEELAKTFLEKFNHEAEELSYQSSLASWNYNTNITDENVQKMNEAGAKWSAFYEEQSKLAKTYPLAEIHNTTVKRQLQALQQSGSSVLSADKSQRLNTILNAMSTIYSTGKACNPNNPQECLLLEPGLDDIMENSKDYNERLWAWEGWRAEVGKQLRPLYEEYVALKNEMARANNYEDYGDYWRGDYEEEWTDGYNYSRSQLIKDVEHTFTQIKPLYQHLHAYVRAKLMDTYPSRISPTGCLPAHLLGDMWGRFWTNLYPLTVPFGQKPNIDVTDAMVNQSWDARRIFKEAEKFFVSVGLPNMTQGFWENSMLTEPGDSRKVVCHPTAWDLGKGDFRIKMCTKVTMDDFLTAHHEMGHIQYDMAYAVQPFLLRNGANEGFHEAVGEIMSLSAATPNHLKTIGLLSPGFSEDSETEINFLLKQALTIVGTLPFTYMLEKWRWMVFKGEIPKEQWMQKWWEMKREIVGVVEPVPHDETYCDPASLFHVANDYSFIRYYTRTIYQFQFQEALCRIAKHEGPLHKCDISNSSEAGKKLLQMLTLGKSKPWTLALEHVVGEKKMNVTPLLKYFEPLFTWLKEQNRNSFVGWNTDWRPYADQSIKVRISLKSALGDEAYEWNDNEMYLFRSSVAYAMREYFSKVKNQTIPFVEDNVWVSNLKPRISFNFFVTASKNVSDVIPRSEVEEAIRMSRSRINDAFRLDDNSLEFLGIQPTLSPPYQPPVT
As for B1, binding was characterised by a dissociation constant (Kd) of 554 nM.

B2: horse ACE2 extracellular domain, human IgG1 Fc fusion protein (Fc fusion)
chain: QSTTEDLAKTFLEKFNSEAEELSHQSSLASWSYNTNITDENVQKMNEAGARWSAFYEEQCKLAKTYPLEEIQNLTVKRQLQALQQSGSSVLSADKSKLNEILNTMSTIYSTGKVCNPSNPQECLLLEPGLDAIMENSKDYNQRLWAWEGWRSEVGKQLRPLYEEYVVLKNEMARANNYEDYGDYWRGDYEAEGPSGYDYSRDQLIEDVERTFAEIKPLYEHLHAYVRAKLMDTYPSHINPTGCLPAHLLGDMWGRFWTNLYSLTVPFGQKPNIDVTDAMVDQSWDAKRIFEEAEKFFVSVGLPNMTQGFWENSMLTEPGDGRKVVCHPTAWDLGKGDFRIKMCTKVTMDDFLTAHHEMGHIQYDMAYAVQPYLLRNGANEGFHEAVGEIMSLSAATPNHLKAIGLLPPDFYEDSETEINFLLKQALTIVGTLPFTYMLEKWRWMVFKGEIPKEEWMKKWWEMKREIVGVVEPVPHDETYCDPAALFHVANDYSFIRYYTRTIYQFQFQEALCQTAKHEGPLHKCDISNSTEAGQKLLQMLSLGKSEPWTLALERIVGVKNMDVRPLLNYFEPLFTWLKDQNKNSFVGWSTNWSPYADQSIKVRISLKSALGEKSYEWNDNEMYLFQSSVAYAMRVYFLKAKNQTILFGEEDVWVSDLKPRISFNFFVTSPKNASDIIPRTDVEEAIRMSRSRINDAFRLDDNTLEFLGIQPTLGPPYQPPVTV
Turning to B2, the Kd (usually the concentration at which binding is half-saturated) is 89.8 nM.
